Reference: patent US5310662

Columns and labels:
[1] = tested on: GAL4 (Saccharomyces cerevisiae); test: cell_activity; details: CAT reporter; lost on deletion of the GAL4 site
[2] = tested on: G-gal-G (hGR with DNA-binding domain replaced by GAL4 residues 1-74) (Homo sapiens / Saccharomyces cerevisiae); test: cell_activity
[3] = tested on: hGR G481 481G (Homo sapiens); details: immunoprecipitation DNA binding; transcription <1
[4] = tested on: hGR G480 480G (Homo sapiens); details: immunoprecipitation DNA binding; transcription 90
[5] = tested on: hGR G455 455G (Homo sapiens); details: immunoprecipitation DNA binding; transcription 80; may be unstable in vitro
[6] = tested on: hGR delta420-451 del420-451 (positions given are the non-deleted residues at the junction) (Homo sapiens); details: immunoprecipitation DNA binding; transcription <1
[7] = tested on: hGR G465 465G (Homo sapiens); details: immunoprecipitation DNA binding; transcription 1
[8] = tested on: hGR G424 424G (Homo sapiens); details: immunoprecipitation DNA binding; transcription <1
[9] = tested on: hGR G446 446G (Homo sapiens); details: immunoprecipitation DNA binding; transcription 40; may be unstable in vitro
[10] = tested on: hGR G477 477G (Homo sapiens); details: immunoprecipitation DNA binding; transcription <1
[11] = tested on: hGR G450 450G (Homo sapiens); details: immunoprecipitation DNA binding; transcription 60
[12] = tested on: hGR G479 479G (Homo sapiens); details: immunoprecipitation DNA binding; transcription 65
[13] = tested on: hGR G423 423G (Homo sapiens); details: immunoprecipitation DNA binding; transcription <1
[14] = tested on: hGR G470 470G (Homo sapiens); details: immunoprecipitation DNA binding; transcription 3
[15] = tested on: hGR G473 473G (Homo sapiens); details: immunoprecipitation DNA binding; transcription <1
[16] = tested on: hGR delta450-487 del450-487 (positions given are the non-deleted residues at the junction) (Homo sapiens); details: immunoprecipitation DNA binding; transcription <1
[17] = tested on: hGR G447 447G (Homo sapiens); details: immunoprecipitation DNA binding; transcription <1
[18] = tested on: hGR G431 C431G (Homo sapiens); details: immunoprecipitation DNA binding; transcription 80
[19] = tested on: hGR G462 462G (Homo sapiens); details: immunoprecipitation DNA binding; transcription 80
[20] = tested on: hGR G474 474G (Homo sapiens); details: immunoprecipitation DNA binding; transcription 60
[21] = tested on: hGR G442 K442G (Homo sapiens); details: immunoprecipitation DNA binding; transcription <1; specificity minimally affected
[22] = tested on: hGR G453 453G (Homo sapiens); details: immunoprecipitation DNA binding; transcription 90
[23] = tested on: hGR G467 467G (Homo sapiens); details: immunoprecipitation DNA binding; transcription 40; may be unstable in vitro
[24] = tested on: hGR G460 460G (Homo sapiens); details: immunoprecipitation DNA binding; transcription 55
[25] = tested on: hGR G441 441G (Homo sapiens); details: immunoprecipitation DNA binding; transcription <1
[26] = tested on: hGR-SB (human glucocorticoid receptor, wild-type-equivalent parent) (Homo sapiens); details: immunoprecipitation DNA binding, reference; transcription 100
[27] = tested on: hGR G486 486G (Homo sapiens); details: immunoprecipitation DNA binding; transcription 10; may be unstable in vitro
[28] = tested on: hGR G432 432G (Homo sapiens); details: immunoprecipitation DNA binding; transcription 10
[29] = tested on: hGR G433 433G (Homo sapiens); details: immunoprecipitation DNA binding; transcription 2
[30] = tested on: hGR G445 445G (Homo sapiens); details: immunoprecipitation DNA binding; transcription <1
[31] = tested on: hGR G437 437G (Homo sapiens); details: immunoprecipitation DNA binding; transcription 20
[32] = tested on: hGR G438 438G (Homo sapiens); details: immunoprecipitation DNA binding; transcription <1
[33] = tested on: hGR G471 471G (Homo sapiens); details: immunoprecipitation DNA binding; transcription 10
[34] = tested on: hGR G426 D426G (Homo sapiens); details: immunoprecipitation DNA binding; transcription 75
[35] = tested on: hGR G421 421G (Homo sapiens); details: immunoprecipitation DNA binding; transcription <1
[36] = tested on: hGR G444 444G (Homo sapiens); details: immunoprecipitation DNA binding; transcription <1
[37] = tested on: hGR G463 463G (Homo sapiens); details: immunoprecipitation DNA binding; transcription <1
[38] = tested on: hGR G476 476G (Homo sapiens); details: immunoprecipitation DNA binding; transcription <1
[39] = tested on: hGR G457 457G (Homo sapiens); details: immunoprecipitation DNA binding; transcription <1

Substance: deltaMTV-GAL-CAT promoter with synthetic GAL4 site 17MX
- activity [1]: 20 fold
- activity ([2]; CAT reporter, hormone dependent): 500 fold

Substance: GRE-containing DNA fragment
- binding signal [3]: 3 % of hGR-SB
- binding signal [4]: 50 % of hGR-SB
- binding signal [5]: 6 % of hGR-SB
- binding signal [6]: 1 % of hGR-SB
- binding signal [7]: 1 % of hGR-SB
- binding signal [8]: 1 % of hGR-SB
- binding signal [9]: 6 % of hGR-SB
- binding signal [10]: 1 % of hGR-SB
- binding signal [11]: 50 % of hGR-SB
- binding signal [12]: 40 % of hGR-SB
- binding signal [13]: < 1 % of hGR-SB
- binding signal [14]: 4 % of hGR-SB
- binding signal [15]: < 1 % of hGR-SB
- binding signal [16]: 1 % of hGR-SB
- binding signal [17]: 2 % of hGR-SB
- binding signal [18]: 10 % of hGR-SB
- binding signal [19]: 40 % of hGR-SB
- binding signal [20]: 95 % of hGR-SB
- binding signal [21]: 60 % of hGR-SB
- binding signal [22]: 60 % of hGR-SB
- binding signal [23]: 6 % of hGR-SB
- binding signal [24]: 90 % of hGR-SB
- binding signal [25]: < 1 % of hGR-SB
- binding signal [26]: 100%
- binding signal [27]: 1 % of hGR-SB
- binding signal [28]: 30 % of hGR-SB
- binding signal [29]: 1 % of hGR-SB
- binding signal [30]: < 1 % of hGR-SB
- binding signal [31]: 8 % of hGR-SB
- binding signal [32]: < 1 % of hGR-SB
- binding signal [33]: 6 % of hGR-SB
- binding signal [34]: 75 % of hGR-SB
- binding signal [35]: < 1 % of hGR-SB
- binding signal [36]: 1 % of hGR-SB
- binding signal [37]: 1 % of hGR-SB
- binding signal [38]: < 1 % of hGR-SB
- binding signal [39]: 2 % of hGR-SB

Substance: deltaMTV-CAT promoter (GREs deleted, no GAL4 site)
- activity (% of deltaMTV-GAL-CAT) ([2]; possible cryptic GAL4 site): 5
